{"source": "paper PMC4659945", "about": "“X-ray structure and activities of an essential Mononegavirales L-protein domain” (Nature Communications, 2015)", "proteins": {"B1": {"name": "CR-VI+ domain of human metapneumovirus (hMPV) L protein (domain or fragment)", "chain": "NALLTPIPSPMVNLTQVIDPTEQLAYFPKITFERLKNYDTSSNYAKGKLTRNYMILLPWQHVNRYNFVFSSTGCKVSLKTCIGKLMKDLNPKVLYFIGEGAGNWMARTACEYPDIKFVYRSLKDDLDHHYPLEYQRVIGELSRIIDSGEGLSMETTDATQKTHWDLIHRVSKDALLITLCDAEFKDRDDFFKMVILWRKHVLSCRICTTYGTDLYLFAKYHAKDCNVKLPFFVRSVATFIMQGSKLSGSECYILLTLGHHNNLPCHGEIQNSKMKIAVCNDFYAAKKLDNKSIEANCKSLLSGLRIPINKKELNRQRRLLTLQSNHSSVATVGGSKVIESKWLTNKANTIIDWLEHILNSPKGELNYDFFEALENTYPNMIKLIDNLGNAEIKKLIKVTGYMLVSKK", "modifications": "disulphide between C1877 of the two copies", "notes": "L protein (large RNA polymerase) of human metapneumovirus isolate 00-1, GenBank AF371337.2, residues 1599-2005 (CR-VI ~1616-1883 and +domain 1884-2005); synthetic gene, codon optimised for Sf cells; The text calls it a 406-residue fragment, but 1599-2005 counts 407 residues; A selenomethionine form was used for phasing; The construct was also expressed in HEK293T and BL21 Star; crystals came from …"}}, "molecular_target": "the molecule itself", "test": "crystal structure; CR-VI+ crystals, space group P2_(1)2_(1)2_(1), two molecules in the asymmetric unit; vapour diffusion at 20.5 °C, PGA-HT screen C11 (pH 6.5) with 0.1 M guanidine hydrochloride"}
{"protein": "B1", "values": [{"measurement": "stoichiometry N", "value": 2}]}
